The values that follow are results of earlier work, collected in article PMC5337525.

The term Kd denotes a measure of binding affinity in units of concentration.

This data set concerns the target calmodulin (UniProt P0DP23).

Regarding β-arrestin 1 (from UniProt P17870), the dissociation constant (Kd) is 7 µM.
